Legend:
clinical = assay: clinical; design: species or system human (Japanese patients); settings: in vivo; for dose excreted: human, iv, 7.4 GBq, total radioactivity
[1] = in vivo; cited from earlier work
Excerpt: This study is the first clinical trial on ^177Lu-DOTATATE for unresectable NETs in Japan. At 29.6 GBq, the absorbed dose to the kidney and red bone marrow was 16.8 Gy and 0.722 Gy, respectively. These values were lower than the reported threshold dose for the kidney (23 Gy) and the red bone marrow (2 Gy). The calculated absorbed doses to the kidney, spleen, red bone marrow, and liver were 0.568, 0.559, 0.0244 and 0.247 mGy/MBq, respectively, in this study. We compared the calculated absorbed dose to each organ with previously published studies in Caucasian populations. In the prev ... || In this study, severe lymphopenia occurred in two (33.3%) cases, and other hematological toxicities were grade 1 or 2 leukocytopenia and thrombocytopenia. This finding was very similar to that reported in the Erasmus study. […] In the present study, lymphocyte, erythrocyte, and leukocyte counts gradua ...

Q: For `C[C@@H](O)[C@H](NC(=O)[C@@H]1CSSC[C@H](NC(=O)[C@@H](Cc2ccccc2)NC(=O)CN2CCN(CC(=O)O)CCN(CC(=O)O)CCN(CC(=O)O)CC2)C(=O)N[C@@H](Cc2ccc(O)cc2)C(=O)N[C@H](Cc2c[nH]c3ccccc23)C(=O)N[C@@H](CCCCN)C(=O)N[C@@H]([C@@H](C)O)C(=O)N1)C(=O)O` [177Lu-DOTATATE, ^177Lu-DOTA^0-Tyr^3-octreotate, metal not drawn], which dose excreted (clinical; Biological cumulative urine excretion of radioactivity at 24 h after administration) is on record?
A: 71.2%

Q: What about the dose excreted (clinical; Biological cumulative urine excretion of radioactivity in the first 4 h) of the same compound?
A: 53.7%

Q: And the dose excreted (clinical; Cumulative urinary excretion of radioactivity within the initial 6 h)?
A: 60.1%

Q: What about the “Effective urinary radioactivity concentration, 0–1 h” value (clinical) of the same compound?
A: 4.7 ± 1.9 GBq/L

Q: What about the “Effective urinary radioactivity concentration, 4–6 h” value (clinical) of the same compound?
A: 1.3 ± 1.1 GBq/L

Q: What about the “Effective urinary radioactivity concentration, 6–24 h” value (clinical) of the same compound?
A: 0.3 ± 0.1 GBq/L

Q: What about the “Effective urinary radioactivity concentration, 24–48 h” value (clinical) of the same compound?
A: 0.07 ± 0.03 GBq/L

Q: What about the “Severe lymphopenia at the follow-up visit after 3 month final treatment” value [1] of the same compound?
A: 25.8%

Q: And the “Severe lymphopenia at the follow-up visit after 30 months final treatment” value [1]?
A: 5.6%

Q: What about the “Severe lymphopenia, frequency” value [1] of the same compound?
A: 50.0%

Q: What about the “Severe renal toxicities, frequency” value [1] of the same compound?
A: 1%

From publication PMC8557155 (Annals of Nuclear Medicine, 2021)
